Measured values as given in US20130059772A1, “Use of Repeat Sequence Protein Polymers in Personal Care Compositions” (DANISCO US INC., priority 2003, published 2013).
“And” between values parts separate entries of the source, which are not always exact repeats. Identical values can stand only once.

Key:
[1] = Cloud point determination (turbidity at 300 nm, 20-80° C.); assay type: physicochemical
Method: The cloud point of SELP47K was determined by first preparing 0.1% and 1% solutions of polydispersed SELP 47K (Example 2) in three different buffers: 50 mM acetate pH 5; 50 mM Tris pH 7; 50 mM Tris pH 9. A 0.5 M NaCl salt solution was prepared in water and salt containing solutions were prepared using this stock solution. Samples were placed in quartz cuvettes and the cloud point determination was carried out using a Cary 300 spectrophotometer equipped with a thermal program and multiple cuvettes configuration. Turbidity measurements were made at 300 nm and the temperature was varied from 20-80° C.

[2] = Tensile mechanical properties of films (INSTRON Model 5564); assay type: physicochemical
Method: In this Example, experiments performed to determine tensile mechanical properties of SELP47K (Example 1 and 2) are described. Samples of SELP47K were prepared by freeze-drying purified SELP47K solution. The subsequent powder was re-dissolved in water to a solids concentration of approximately 5, 10 or 20%. These solutions were then mixed with plasticizers to an effective concentration of 1-3%. Plasticizers included in this study were polyethylene glycol 200, glycerin, and triethanolamine. Eleven milliliters of these solutions were poured into a large (6 inch square) polyethylene weigh boats and the solutions were allowed to dry either in an oven at 37° C. or room temperature for 1 to 3 days. Subsequent films were successfully peeled from the weigh boat with a spatula without any damage to the polymer film.
The films were then cut into tensile specimens using a very sharp fabric cutting wheel. The specimens were approximately 6 cm long and 2.5 cm wide. The gauge length for these samples (length of sample between tensile testing clamps) was set to 3 cm and the thickness of the sample was measured at 5 points along the gauge length using a digital thickness coating instrument. The thickness of the samples was recorded as the average of the 5 points and varied from 46.4 to 188.2 microns. Both the sample width and sample thickness were entered into an Instron software program (Merlin) to enable it to calculate the tensile strength and tensile modulus.
The samples were loaded into the jaws of an INSTRON® Model 5564 apparatus making sure the gauge length was always set to 3 cm and that the sample was not under any static load or stress. […] The results of the stress-strain measurements can be seen for four of the samples in FIG. 1. The elongation % of SELP47K was determined to be 8.4 for 20% SELP47K solution film made at room temperature (RM). The tensile strength was determined to be 65.9 megapascals (MPa), and the tensile modulus was determined to be 1716.50 MPa. The results of plastisizer-SELP47K films reveal strong correlation between concentration and mechanical properties measured. For 3% PEG200 containing SELP47K, the films elongation % reached 541.

facial skin [3] = test: Skin efficacy study: superficial facial line score (Packman and Gans); assay type: in vivo, human
Excerpt: (§1) Eleven impaneled subjects (age 35-70 years) showing clear signs of facial skin aging were provided with a non-moisturizing soap, (AVEENO®), one week prior to the study and were instructed to use the provided soap to wash the face and were required to refrain from excessive UV exposure. After a seven-day conditioning phase, subjects were acclimated to the ambient temperature and humidity for thirty minutes. One side of the face of each subject was designated as the measurement side by random selection by computer. After 30-minute acclimation period, baseline digital photographs were taken, and instrumental measurements, skin replica samples and visual evaluations were made. Photographs were taken, with a Canfield Scientific Camera, of the full face, the periorbital area, and the temporal side of eye. Chromameter (Model CR300, Minolta) measurements were taken from the periorbital area directly under the eye (Chardon et al., Int. J. Cosmet. Sci., 13:191-208 [1991]). […]
Evaluation of superficial facial lines was performed by an expert evaluator using the scoring method described by Packman and Gans (supra). A 7% decrease in the superficial facial line score was assessed at the 30-minute post-treatment interval compared to baseline, which was statistically significant at the 91% confidence level (p=0.09).

facial skin [4] = test: Skin efficacy study: Cutometer Uv (viscoelasticity); assay type: in vivo, human; details: 5% aqueous solution applied once to face; 30 Minutes Post; baseline mean 0.09
Excerpt: as §1, with “[1991]). Silflo replicas (CuDerm Corporation, Dallas, Tx) were made from the periorbital area adjacent to the temporal side of the eye (Grove et al., J. Am. Acad. Dermatol., 21:631-637 [1998]; and Sun et al 1997 IFSCC Conference, Mexico). Cutometer (SEM575, Courage and Khazaka, Germany) measurements were taken at the periorbital area at the upper portion of cheekbone. All measurements were performed in triplicate.” for “[1991]).”

[5] = Cloud point determination (turbidity at 300 nm, 20-80° C.); assay type: physicochemical; details: 0.05% solution in water
[6] = Example 1 Material [GC2596-26-A], film from 05% sol., 37 C.
[7] = Example 1 Material [GC2596-26-A], film from 05% sol., RM
[8] = Example 1 Material [GC2596-26-A], film from 10% sol., 37 C.
[9] = Example 1 Material [GC2596-26-A], film from 10% sol., RM
[10] = Example 1 Material [GC2596-26-A], film from 20% sol., 37 C.
[11] = Example 1 Material [GC2596-26-A], film from 20% sol., RM
[12] = Example 2 Material [GC2596-26-B], film from 10% sol., 37 C.

SELP47K: silk-elastin repeat sequence protein copolymer, head-[(GAGAGS)2(GVGVP)3GKGVP(GVGP)4(GAGAGS)2]13-tail (SEQ ID NO:19), 886 amino acids
cloud point ([1]; 0.1% solution, 0.5 M NaCl, irrespective of pH): 50 °C | cloud point ([1]; 0.1% solution, pH 5): remained soluble even at 80 °C | cloud point ([1]; 0.1% solution, pH 9): 60 °C | cloud point ([1]; 1% solution in water): 70 °C | cloud point ([1]; 1% solution, 0.5 M salt, irrespective of pH): 55 °C | cloud point ([1]; 1% solution, 5-9 pH range): ~65 °C | cloud point ([1]; 1% solution, pH 5 buffer, 0.2 M salt): 65 °C | cloud point ([1]; 1% solution, pH 5 buffer, 0.5 M salt): below 60 °C | cloud point ([1]; 1% solution, pH 5 buffer, no salt): 75 °C | Tensile Strain [2, 6]: 2.6% | Tensile Strength [2, 6]: 19.83 MPA | Tensile Strain [2, 7]: 2.4% | Tensile Strength [2, 7]: 21.43 MPA | Tensile Strain [2, 8]: 3.6% | Tensile Strength [2, 8]: 62.06 MPA | Tensile Strain [2, 9]: 3.5% | Tensile Strength [2, 9]: 62.98 MPA | Tensile Strain [2, 10]: 8.6% | Tensile Strength [2, 10]: 74.14 MPA | Tensile Strain (elongation %) [2, 11]: 8.4% | Tensile Strength [2, 11]: 65.9 MPA and 65.90 MPA | Tensile Strain [2, 12]: 6.98% | Tensile Strength [2, 12]: 39.34 MPA | tensile modulus ([2]; film from 20% SELP47K solution made at room temperature (RM)): 1716.50 MPa | Superficial Facial Line Score, Mean (facial skin [3]; 5% aqueous solution applied once to face, 30 Minutes Post, baseline mean 40): 37 | decrease in the superficial facial line score (facial skin [3]; 5% aqueous solution, 30-minute post-treatment vs baseline, p=0.09): 7% | Cutometer Uv Score, Mean (facial skin [4]): 0.106 | cloud point [5]: remains soluble in water even at 80 °C
